According to the supplement of paper PMC10567573:

B1: NP_116010.1 (parent)
chain: HSLRAVSTDPPHHDHHDEFCLMP

Key:
[1] = variants of: B1; test: protein stability index of a GFP-peptide fusion (GPS, HEK-293T) (PSI 1-6); higher = more stable; conditions: c terminus: native
[2] = variants of: B1; test: as above; conditions: c terminus: native; remark: listed apart in the source

Row | Variant | protein stability index [1] | protein stability index [2]
1 | H15F | 2.32 | 2.69
2 | H15A | 2.57 | 1.93
3 | H15E | 3 | 1.67
4 | H15G | 2.88 | 2.48
5 | H15D | 3.15 | 2.08
6 | H15R | 2.32 | 2.15
7 | H15V | 2.81 | 3.14
8 | H15Q | 2.48 | 2.79
9 | H15K | 2.6 | 2.5
10 | H15T | 2.58 | 1.86
11 | H15W | 2.14 | 2.11
12 | H15L | 2.33 | 1.7
13 | H15M | 2.56 | 2.16
14 | H15S | 2.76 | 1.8
15 | H15N | 2.76 | 2.07
16 | H15C | 2.52 | 4.24
17 | H15Y | 2.53 | 1.84
18 | D17N | 2.4 | 
19 | D17A | 2.44 | 1.76
20 | D17E | 2.66 | 2.59
21 | D17C | 2.46 | 2.45
22 | D17H | 2.21 | 
23 | D17W | 2.1 | 3.5
24 | D17I | 2.57 | 2.8

Row | Variant | protein stability index [1] | protein stability index [2]
25 | D17V | 2.33 | 2.93
26 | D17R | 2.16 | 
27 | D17T | 2.42 | 2.33
28 | D17S | 2.31 | 2.78
29 | D17F | 2.21 | 3.35
30 | D17Y | 2.17 | 3.33
31 | D17K | 2.4 | 
32 | D17Q | 2.2 | 2
33 | D17L | 2.54 | 2.72
34 | D17G | 2.11 | 1.88
35 | D17M | 2.3 | 4.33
36 | H16W | 2.32 | 
37 | H16Q | 2.77 | 2.17
38 | H16F | 2.65 | 2.67
39 | H16K | 2.81 | 1.86
40 | H16T | 2.69 | 2.58
41 | H16L | 2.61 | 2.4
42 | H16E | 3.25 | 2.84
43 | H16R | 2.34 | 2.24
44 | H16V | 2.98 | 2
45 | H16M | 2.56 | 2.2
46 | H16Y | 2.58 | 2.61
47 | H16S | 2.54 | 2.61
48 | H16C | 2.66 | 2.44

Row | Variant | protein stability index [1] | protein stability index [2]
49 | H16N | 2.81 | 2.06
50 | H16G | 2.64 | 1.99
51 | H16A | 2.9 | 2.52
52 | H16I | 2.87 | 1.65
53 | H16D | 2.64 | 2.29
54 | F19I | 2.2 | 2.89
55 | F19E | 2.57 | 2.82
56 | F19R | 2.5 | 1.8
57 | F19K | 2.87 | 1.59
58 | F19A | 2.57 | 3.6
59 | F19V | 2.41 | 2.17
60 | F19P | 2.33 | 2.79
61 | F19C | 2.12 | 
62 | F19Y | 2.54 | 2.33
63 | F19T | 2.67 | 1.95
64 | F19L | 2.31 | 1.97
65 | F19M | 2.46 | 2.6
66 | F19W | 2.52 | 2.39
67 | F19S | 2.47 | 3.38
68 | F19G | 2.25 | 
69 | F19N | 2.27 | 2.42
70 | F19Q | 2.46 | 2.26
71 | E18C | 2.85 | 2.46
72 | E18L | 2.55 | 2.29

Row | Variant | protein stability index [1] | protein stability index [2]
73 | E18Y | 2.22 | 2.08
74 | E18S | 2.19 | 2.32
75 | E18W | 2.61 | 
76 | E18M | 2.15 | 2.24
77 | E18I | 2.5 | 2.05
78 | E18H | 2.32 | 3.57
79 | E18T | 2.72 | 2.2
80 | E18R | 2.35 | 
81 | E18K | 1.95 | 3.01
82 | E18V | 2.58 | 2.14
83 | E18A | 2.37 | 1.58
84 | E18N | 2.44 | 2.84
85 | E18G | 2.48 | 
86 | E18F | 2.12 | 3.33
87 | E18Q | 2.7 | 1.93
88 | C20M | 3.14 | 2.16
89 | C20G | 2.09 | 3.08
90 | C20I | 4.33 | 3.11
91 | C20T | 3.61 | 2.3
92 | C20D | 3.8 | 2.69
93 | C20V | 4.51 | 3.09
94 | C20F | 4.5 | 3.54
95 | C20E | 2.5 | 2.34
96 | C20N | 3.24 | 2.21

Row | Variant | protein stability index [1] | protein stability index [2]
97 | C20L | 4.58 | 3.49
98 | C20Q | 2.59 | 1.89
99 | C20R | 4.76 | 3.55
100 | C20H | 3.74 | 2.41
101 | C20S | 2.48 | 2.35
102 | C20W | 3.48 | 3.13
103 | C20A | 2.8 | 2.05
104 | C20K | 4.78 | 4.4
105 | D14R | 2 | 2.48
106 | D14V | 2.27 | 
107 | D14N | 2.11 | 2.13
108 | D14Y | 2.29 | 
109 | D14W | 1.97 | 1.87
110 | D14L | 2.02 | 2.33
111 | D14M | 2.29 | 3.39
112 | D14K | 2.25 | 2.14
113 | D14S | 2.23 | 2.34
114 | D14Q | 2.45 | 2.61
115 | L21I | 2.56 | 1.68
116 | L21H | 2.92 | 1.22
117 | L21C | 2.9 | 2.63
118 | L21A | 2.83 | 1.67
119 | L21E | 3.53 | 2.51
120 | L21F | 2.21 | 2.37
